To fix the notation:
B1: SEQ ID NO: 136 (Example No. 136) (peptide)
peptide: cyclo([TyrEtNAc]W[Phe(4-COOH)]G[Pro(trans-4-NH2)][Trp(4-Cl)(βS-Me)]D[dNMeA]G[Bip(4'-COOH)][4Pal][Nva][dA][Cha44F2])
SMILES: CCC[C@@H]1NC(=O)[C@H](Cc2ccncc2)NC(=O)[C@H](Cc2ccc(-c3ccc(C(=O)O)cc3)cc2)NC(=O)CNC(=O)[C@@H](C)N(C)C(=O)[C@H](CC(=O)O)NC(=O)[C@H]([C@@H](C)c2c[nH]c3cccc(Cl)c23)NC(=O)[C@@H]2C[C@@H](N)CN2C(=O)CNC(=O)[C@H](Cc2ccc(C(=O)O)cc2)NC(=O)[C@H](Cc2c[nH]c3ccccc23)NC(=O)[C@H](Cc2ccc(OCCNC(C)=O)cc2)NC(=O)[C@H](CC2CCC(F)(F)CC2)NC(=O)[C@@H](C)NC1=O
B2: SEQ ID NO: 140 (Example No. 140) (peptide)
peptide: cyclo([TyrEtNAc]W[Phe(4-COOH)]G[Pro(trans-4-NH2)][Trp(4-Cl)(βS-Me)]D[dNMeA]G[Bip(4'-COOH)]W[AbuMph][dA]G)
SMILES: CC(=O)NCCOc1ccc(C[C@@H]2NC(=O)CNC(=O)[C@@H](C)NC(=O)[C@H](CCN3CCOCC3)NC(=O)[C@H](Cc3c[nH]c4ccccc34)NC(=O)[C@H](Cc3ccc(-c4ccc(C(=O)O)cc4)cc3)NC(=O)CNC(=O)[C@@H](C)N(C)C(=O)[C@H](CC(=O)O)NC(=O)[C@H]([C@@H](C)c3c[nH]c4cccc(Cl)c34)NC(=O)[C@@H]3C[C@@H](N)CN3C(=O)CNC(=O)[C@H](Cc3ccc(C(=O)O)cc3)NC(=O)[C@H](Cc3c[nH]c4ccccc34)NC2=O)cc1
B3: SEQ ID NO: 138 (Example No. 138) (peptide)
peptide: cyclo([TyrEtNAc]W[Phe(4-COOH)]G[Pro(trans-4-NH2)][Trp(4-Cl)(βS-Me)]D[dNMeA]G[Bip(4'-COOH)]KS[dA][hTyr])
SMILES: CC(=O)NCCOc1ccc(C[C@@H]2NC(=O)[C@H](CCc3ccc(O)cc3)NC(=O)[C@@H](C)NC(=O)[C@H](CO)NC(=O)[C@H](CCCCN)NC(=O)[C@H](Cc3ccc(-c4ccc(C(=O)O)cc4)cc3)NC(=O)CNC(=O)[C@@H](C)N(C)C(=O)[C@H](CC(=O)O)NC(=O)[C@H]([C@@H](C)c3c[nH]c4cccc(Cl)c34)NC(=O)[C@@H]3C[C@@H](N)CN3C(=O)CNC(=O)[C@H](Cc3ccc(C(=O)O)cc3)NC(=O)[C@H](Cc3c[nH]c4ccccc34)NC2=O)cc1
B4: SEQ ID NO: 137 (Example No. 137) (peptide)
peptide: cyclo([TyrEtNAc]W[Phe(4-COOH)]G[Pro(trans-4-NH2)][Trp(4-Cl)(βS-Me)]D[dNMeA]G[Bip(4'-COOH)]KL[dA][hF3CF3])
SMILES: CC(=O)NCCOc1ccc(C[C@@H]2NC(=O)[C@H](CCc3cccc(C(F)(F)F)c3)NC(=O)[C@@H](C)NC(=O)[C@H](CC(C)C)NC(=O)[C@H](CCCCN)NC(=O)[C@H](Cc3ccc(-c4ccc(C(=O)O)cc4)cc3)NC(=O)CNC(=O)[C@@H](C)N(C)C(=O)[C@H](CC(=O)O)NC(=O)[C@H]([C@@H](C)c3c[nH]c4cccc(Cl)c34)NC(=O)[C@@H]3C[C@@H](N)CN3C(=O)CNC(=O)[C@H](Cc3ccc(C(=O)O)cc3)NC(=O)[C@H](Cc3c[nH]c4ccccc34)NC2=O)cc1
B5: SEQ ID NO: 143 (Example No. 143) (peptide)
peptide: cyclo([TyrEtNAc]W[Phe(4-COOH)]G[Pro(trans-4-NH2)][Trp(4-Cl)(βS-Me)]D[dNMeA]G[Bip(4'-COOH)]W[Dab][dA][hTyr])
SMILES: CC(=O)NCCOc1ccc(C[C@@H]2NC(=O)[C@H](CCc3ccc(O)cc3)NC(=O)[C@@H](C)NC(=O)[C@H](CCN)NC(=O)[C@H](Cc3c[nH]c4ccccc34)NC(=O)[C@H](Cc3ccc(-c4ccc(C(=O)O)cc4)cc3)NC(=O)CNC(=O)[C@@H](C)N(C)C(=O)[C@H](CC(=O)O)NC(=O)[C@H]([C@@H](C)c3c[nH]c4cccc(Cl)c34)NC(=O)[C@@H]3C[C@@H](N)CN3C(=O)CNC(=O)[C@H](Cc3ccc(C(=O)O)cc3)NC(=O)[C@H](Cc3c[nH]c4ccccc34)NC2=O)cc1
B6: SEQ ID NO: 135 (Example No. 135) (peptide)
peptide: cyclo([TyrEtNAc]W[Phe(4-COOH)]G[Pro(trans-4-NH2)][Trp(4-Cl)(βS-Me)]D[dNMeA]G[Bip(4'-COOH)][4Pal]L[dA][hTyr])
SMILES: CC(=O)NCCOc1ccc(C[C@@H]2NC(=O)[C@H](CCc3ccc(O)cc3)NC(=O)[C@@H](C)NC(=O)[C@H](CC(C)C)NC(=O)[C@H](Cc3ccncc3)NC(=O)[C@H](Cc3ccc(-c4ccc(C(=O)O)cc4)cc3)NC(=O)CNC(=O)[C@@H](C)N(C)C(=O)[C@H](CC(=O)O)NC(=O)[C@H]([C@@H](C)c3c[nH]c4cccc(Cl)c34)NC(=O)[C@@H]3C[C@@H](N)CN3C(=O)CNC(=O)[C@H](Cc3ccc(C(=O)O)cc3)NC(=O)[C@H](Cc3c[nH]c4ccccc34)NC2=O)cc1
B7: SEQ ID NO: 141 (Example No. 141) (peptide)
peptide: cyclo([TyrEtNAc]W[Phe(4-COOH)]G[Pro(trans-4-NH2)][Trp(4-Cl)(βS-Me)]D[dNMeA]G[Bip(4'-COOH)]W[AbuMph][dA][hTyr])
SMILES: CC(=O)NCCOc1ccc(C[C@@H]2NC(=O)[C@H](CCc3ccc(O)cc3)NC(=O)[C@@H](C)NC(=O)[C@H](CCN3CCOCC3)NC(=O)[C@H](Cc3c[nH]c4ccccc34)NC(=O)[C@H](Cc3ccc(-c4ccc(C(=O)O)cc4)cc3)NC(=O)CNC(=O)[C@@H](C)N(C)C(=O)[C@H](CC(=O)O)NC(=O)[C@H]([C@@H](C)c3c[nH]c4cccc(Cl)c34)NC(=O)[C@@H]3C[C@@H](N)CN3C(=O)CNC(=O)[C@H](Cc3ccc(C(=O)O)cc3)NC(=O)[C@H](Cc3c[nH]c4ccccc34)NC2=O)cc1
B8: SEQ ID NO: 139 (Example No. 139) (peptide)
peptide: cyclo([TyrEtNAc]W[Phe(4-COOH)]G[Pro(trans-4-NH2)][Trp(4-Cl)(βS-Me)]D[dNMeA]G[Bip(4'-COOH)]KS[dDab][hTyr])
SMILES: CC(=O)NCCOc1ccc(C[C@@H]2NC(=O)[C@H](CCc3ccc(O)cc3)NC(=O)[C@@H](CCN)NC(=O)[C@H](CO)NC(=O)[C@H](CCCCN)NC(=O)[C@H](Cc3ccc(-c4ccc(C(=O)O)cc4)cc3)NC(=O)CNC(=O)[C@@H](C)N(C)C(=O)[C@H](CC(=O)O)NC(=O)[C@H]([C@@H](C)c3c[nH]c4cccc(Cl)c34)NC(=O)[C@@H]3C[C@@H](N)CN3C(=O)CNC(=O)[C@H](Cc3ccc(C(=O)O)cc3)NC(=O)[C@H](Cc3c[nH]c4ccccc34)NC2=O)cc1
B9: SEQ ID NO: 142 (Example No. 142) (peptide)
peptide: cyclo([TyrEtNAc]W[Phe(4-COOH)]G[Pro(trans-4-NH2)][Trp(4-Cl)(βS-Me)]D[dNMeA]G[Bip(4'-COOH)]W[Dab][dA][hPhe])
SMILES: CC(=O)NCCOc1ccc(C[C@@H]2NC(=O)[C@H](CCc3ccccc3)NC(=O)[C@@H](C)NC(=O)[C@H](CCN)NC(=O)[C@H](Cc3c[nH]c4ccccc34)NC(=O)[C@H](Cc3ccc(-c4ccc(C(=O)O)cc4)cc3)NC(=O)CNC(=O)[C@@H](C)N(C)C(=O)[C@H](CC(=O)O)NC(=O)[C@H]([C@@H](C)c3c[nH]c4cccc(Cl)c34)NC(=O)[C@@H]3C[C@@H](N)CN3C(=O)CNC(=O)[C@H](Cc3ccc(C(=O)O)cc3)NC(=O)[C@H](Cc3c[nH]c4ccccc34)NC2=O)cc1

*1 amine or outer side, *2 acyl side, *3 side chain or, on linkers, in order; H or OH if unused. [ ]: non-standard residue; d: D form. TyrEtNAc = L-tyrosine O-ethyl acetamide, (S)-3-(4-(2-acetamidoethoxy)phenyl)-2-aminopropanoic acid, CC(=O)NCCOc1ccc(C[C@H](N[*:1])C(=O)[*:2])cc1; hF3CF3 = (S)-2-amino-4-(3-(trifluoromethyl)phenyl)butanoic acid, O=C([C@H](CCc1cccc(C(F)(F)F)c1)N[*:1])[*:2]; Cha44F2 = (S)-2-amino-3-(4,4-difluorocyclohexyl)propanoic acid, O=C([C@H](CC1CCC(F)(F)CC1)N[*:1])[*:2]; AbuMph = (S)-2-amino-4-morpholinobutanoic acid, O=C([C@H](CCN1CCOCC1)N[*:1])[*:2]; Trp(4-Cl)(βS-Me) = C[C@@H](c1c[nH]c2cccc(Cl)c12)[C@H](N)C(=O)O; Pro(trans-4-NH2) = O=C([C@@H]1C[C@@H](N[*:3])CN1[*:1])[*:2]; Bip(4'-COOH) = N[C@@H](Cc1ccc(-c2ccc(C(=O)O)cc2)cc1)C(=O)O; Phe(4-COOH) = N[C@@H](Cc1ccc(C(=O)O)cc1)C(=O)O; hTyr = N[C@@H](CCc1ccc(O)cc1)C(=O)O; hPhe = N[C@@H](CCc1ccccc1)C(=O)O; 4Pal = N[C@@H](Cc1ccncc1)C(=O)O; dDab = NCC[C@@H](N)C(=O)O; dNMeA = CN[C@H](C)C(=O)O; Dab = NCC[C@H](N)C(=O)O; Nva = CCC[C@H](N)C(=O)O

For the assay, the target named is Recombinant human IL-1β (BioLegend 579404) (human, UniProt P01584 117-269). The assay can be described thus: cell-based or functional assay.
B1: the “MRC5 IC50” value was 0.396 nM.

B2: the “MRC5 IC50” value worked out at 0.515 nM.

On to B3, for which the “MRC5 IC50” value stood at 0.214 nM.

As for B4, the “MRC5 IC50” value came to 0.0939 nM.

For the molecule B5, the “MRC5 IC50” value is 0.23 nM.

As to B6, the “MRC5 IC50” value was found to be 0.31 nM.

As to B7, the “MRC5 IC50” value came to 0.177 nM.

Turning to B8, the “MRC5 IC50” value was found to be 0.133 nM.

In the case of B9, the “MRC5 IC50” value was 0.159 nM.

Values taken from US20230406885A1, “CYCLIC PEPTIDES FOR TRAPPING INTERLEUKIN-1 BETA” (MERCK SHARP & DOHME LLC, priority 2022, published 2023).
